In doi:10.1101/2023.12.19.572259:
Changes are numbered by the printed parent chain. Where two headings read alike, the source gives them in different places. One block for each molecule: values may come before it.

Legend:
Experiment in all cases: SPR
[1] = target: monomeric streptavidin variant mSA, wild type
[2] = target: monomeric streptavidin variant mSA, wild type; remark: listed apart in the source
[3] = target: monomeric streptavidin variant mSA with the S27A mutation

Kd [1]: 9.6 nM
Molecule: Smt3 SUMO protein biotinylated at the N-terminus with biotin C2 maleimide (from UniProt Q12306 1-101) (natural protein)

Kd [2]: 0.2 nM
Kd [3]: 54 nM
B1: 4NBX.B-biotin103 variant v186_Fr (VHH)
VHH: QVQLQESGGGLVQAGGSLRLSCAASGRTFSRSPMAWYRQPPGKEREFVAAGSSTGTTTYYADSVKGRFTISRDNAKNTVYLQMNSLKPEDTAVYYCAAAPLGCARKFAESAYWGQGTQVTVSS

Kd [2]: 0.12 nM
fold higher ka than v119 [2]: 4 fold
fold lower kd than v119 [2]: 2 fold
B2: 4NBX.B-biotin103 variant v149 (VHH)
VHH: B1 VHH with V12A, Y37F, T56R, L101Y, K106Y, F107R, A108D, S110Y

Kd [2]: 0.9 nM
B3: 4NBX.B-biotin103 variant v119 (VHH)
VHH: QVQLQESGGGLAQAGGSLRLSCAASGRTFSHAPMAWFRQPPGKEREFVAAGSSTGRTTYYADSVKGRFTISRDNAKNTVYLQMNSLKPEDTAVYYCAAAPYGCSHYRDEYAYWGQGTQVTVSS
